# Data published in the Human Domainome abundance scans (Beltran et al. 2025).
# ± gives the uncertainty stated by the source.
# B1: Cullin-9, residues 2234 to 2275; numbered along this chain, Q8IWT3 (parent)
# chain: KRCPSCQAPIEKNEGCLHMTCAKCNHGFCWRCLKSWKPNHKD
# Variants of: B1
# Assay: abundance fitness (aPCA) (normalised: wild type 0, dead -1); higher = more abundant; growth selection in yeast, the domain comes from the species named
# Conditions: Homo sapiens
row,Variant,abundance fitness
1,KRCPMCQAPIEKNEGCLHMTCAKCNHGFCWRCLKSWKPNHKD [S5M],0.395 ± 0.11
2,KRCPHCQAPIEKNEGCLHMTCAKCNHGFCWRCLKSWKPNHKD [S5H],-0.336 ± 0.32
3,KRCPLCQAPIEKNEGCLHMTCAKCNHGFCWRCLKSWKPNHKD [S5L],-0.121 ± 0.081
4,KRCPQCQAPIEKNEGCLHMTCAKCNHGFCWRCLKSWKPNHKD [S5Q],0.31 ± 0.095
5,KRCPACQAPIEKNEGCLHMTCAKCNHGFCWRCLKSWKPNHKD [S5A],0.462 ± 0.074
6,KRCPYCQAPIEKNEGCLHMTCAKCNHGFCWRCLKSWKPNHKD [S5Y],-0.291 ± 0.17
7,KRCPCCQAPIEKNEGCLHMTCAKCNHGFCWRCLKSWKPNHKD [S5C],0.137 ± 0.1
8,KRCPGCQAPIEKNEGCLHMTCAKCNHGFCWRCLKSWKPNHKD [S5G],0.56 ± 0.07
9,KRCPVCQAPIEKNEGCLHMTCAKCNHGFCWRCLKSWKPNHKD [S5V],0.259 ± 0.078
10,KRCPSCCAPIEKNEGCLHMTCAKCNHGFCWRCLKSWKPNHKD [Q7C],-0.025 ± 0.11
11,KRCPSCSAPIEKNEGCLHMTCAKCNHGFCWRCLKSWKPNHKD [Q7S],-0.406 ± 0.17
12,KRCPSCTAPIEKNEGCLHMTCAKCNHGFCWRCLKSWKPNHKD [Q7T],-0.073 ± 0.28
13,KRCPSCPAPIEKNEGCLHMTCAKCNHGFCWRCLKSWKPNHKD [Q7P],-0.18 ± 0.12
14,KRCPSCDAPIEKNEGCLHMTCAKCNHGFCWRCLKSWKPNHKD [Q7D],0.538 ± 0.24
15,KRCPSCGAPIEKNEGCLHMTCAKCNHGFCWRCLKSWKPNHKD [Q7G],0.258 ± 0.079
16,KRCPSCEAPIEKNEGCLHMTCAKCNHGFCWRCLKSWKPNHKD [Q7E],0.089 ± 0.11
17,KRCPSCVAPIEKNEGCLHMTCAKCNHGFCWRCLKSWKPNHKD [Q7V],-0.198 ± 0.11
18,KRCPSCAAPIEKNEGCLHMTCAKCNHGFCWRCLKSWKPNHKD [Q7A],-0.064 ± 0.15
19,KRCPSCIAPIEKNEGCLHMTCAKCNHGFCWRCLKSWKPNHKD [Q7I],-0.346 ± 0.34
20,KRCPSLQAPIEKNEGCLHMTCAKCNHGFCWRCLKSWKPNHKD [C6L],-0.295 ± 0.12

row,Variant,abundance fitness
1,KRCPSNQAPIEKNEGCLHMTCAKCNHGFCWRCLKSWKPNHKD [C6N],0.056 ± 0.31
2,KRCPSIQAPIEKNEGCLHMTCAKCNHGFCWRCLKSWKPNHKD [C6I],-0.419 ± 0.18
3,KRCPSSQAPIEKNEGCLHMTCAKCNHGFCWRCLKSWKPNHKD [C6S],-0.511 ± 0.12
4,KRCPSQQAPIEKNEGCLHMTCAKCNHGFCWRCLKSWKPNHKD [C6Q],-0.587 ± 0.12
5,KRCPSPQAPIEKNEGCLHMTCAKCNHGFCWRCLKSWKPNHKD [C6P],-0.639 ± 0.15
6,KRCPSAQAPIEKNEGCLHMTCAKCNHGFCWRCLKSWKPNHKD [C6A],-0.029 ± 0.096
7,KRCPSHQAPIEKNEGCLHMTCAKCNHGFCWRCLKSWKPNHKD [C6H],-0.222 ± 0.11
8,KRCPSFQAPIEKNEGCLHMTCAKCNHGFCWRCLKSWKPNHKD [C6F],-0.846 ± 0.28
9,KRCPSWQAPIEKNEGCLHMTCAKCNHGFCWRCLKSWKPNHKD [C6W],-0.615 ± 0.15
10,KRCPSVQAPIEKNEGCLHMTCAKCNHGFCWRCLKSWKPNHKD [C6V],-0.383 ± 0.087
11,KRCPSGQAPIEKNEGCLHMTCAKCNHGFCWRCLKSWKPNHKD [C6G],-0.126 ± 0.079
12,KRCPSTQAPIEKNEGCLHMTCAKCNHGFCWRCLKSWKPNHKD [C6T],-0.347 ± 0.098
13,KRCPSMQAPIEKNEGCLHMTCAKCNHGFCWRCLKSWKPNHKD [C6M],-0.447 ± 0.12
14,KRCPSYQAPIEKNEGCLHMTCAKCNHGFCWRCLKSWKPNHKD [C6Y],-0.518 ± 0.15
15,KRCPSDQAPIEKNEGCLHMTCAKCNHGFCWRCLKSWKPNHKD [C6D],-0.091 ± 0.13
16,KRCPSKQAPIEKNEGCLHMTCAKCNHGFCWRCLKSWKPNHKD [C6K],-0.515 ± 0.19
17,KRCPSRQAPIEKNEGCLHMTCAKCNHGFCWRCLKSWKPNHKD [C6R],-0.612 ± 0.092
18,KRCPSEQAPIEKNEGCLHMTCAKCNHGFCWRCLKSWKPNHKD [C6E],-0.304 ± 0.11
19,KRCPSCQAPGEKNEGCLHMTCAKCNHGFCWRCLKSWKPNHKD [I10G],-0.303 ± 0.081
20,KRCPSCQAPEEKNEGCLHMTCAKCNHGFCWRCLKSWKPNHKD [I10E],0.059 ± 0.13

row,Variant,abundance fitness
1,KRCPSCQAPHEKNEGCLHMTCAKCNHGFCWRCLKSWKPNHKD [I10H],-0.588 ± 0.18
2,KRCPSCQAPDEKNEGCLHMTCAKCNHGFCWRCLKSWKPNHKD [I10D],-0.011 ± 0.09
3,KRCPSCQAPAEKNEGCLHMTCAKCNHGFCWRCLKSWKPNHKD [I10A],-0.193 ± 0.11
4,KREPSCQAPIEKNEGCLHMTCAKCNHGFCWRCLKSWKPNHKD [C3E],-0.474 ± 0.17
5,KRFPSCQAPIEKNEGCLHMTCAKCNHGFCWRCLKSWKPNHKD [C3F],-0.416 ± 0.2
6,KRGPSCQAPIEKNEGCLHMTCAKCNHGFCWRCLKSWKPNHKD [C3G],-0.485 ± 0.08
7,KRTPSCQAPIEKNEGCLHMTCAKCNHGFCWRCLKSWKPNHKD [C3T],-0.435 ± 0.15
8,KRQPSCQAPIEKNEGCLHMTCAKCNHGFCWRCLKSWKPNHKD [C3Q],-1.07 ± 0.14
9,KRSPSCQAPIEKNEGCLHMTCAKCNHGFCWRCLKSWKPNHKD [C3S],-0.303 ± 0.092
10,KRYPSCQAPIEKNEGCLHMTCAKCNHGFCWRCLKSWKPNHKD [C3Y],-0.342 ± 0.16
11,KRRPSCQAPIEKNEGCLHMTCAKCNHGFCWRCLKSWKPNHKD [C3R],-0.751 ± 0.089
12,KRIPSCQAPIEKNEGCLHMTCAKCNHGFCWRCLKSWKPNHKD [C3I],0.698 ± 0.13
13,KRHPSCQAPIEKNEGCLHMTCAKCNHGFCWRCLKSWKPNHKD [C3H],-0.249 ± 0.15
14,KRDPSCQAPIEKNEGCLHMTCAKCNHGFCWRCLKSWKPNHKD [C3D],-0.018 ± 0.13
15,KRVPSCQAPIEKNEGCLHMTCAKCNHGFCWRCLKSWKPNHKD [C3V],-0.348 ± 0.092
16,KRNPSCQAPIEKNEGCLHMTCAKCNHGFCWRCLKSWKPNHKD [C3N],0.169 ± 0.24
17,KRMPSCQAPIEKNEGCLHMTCAKCNHGFCWRCLKSWKPNHKD [C3M],-0.144 ± 0.11
18,KRKPSCQAPIEKNEGCLHMTCAKCNHGFCWRCLKSWKPNHKD [C3K],-0.658 ± 0.13
19,KRWPSCQAPIEKNEGCLHMTCAKCNHGFCWRCLKSWKPNHKD [C3W],-1.4 ± 0.18
20,KRPPSCQAPIEKNEGCLHMTCAKCNHGFCWRCLKSWKPNHKD [C3P],-0.945 ± 0.13
